This is an account of results in patent US10363306B2, “Cytokines and neuroantigens for treatment of immune disorders” (East Carolina University, priority 2009, dated 2019).

For one experiment, the system named is EAE in SJL mice. The experiment in a line: Treatment of passively induced EAE and second active challenge in SJL mice. Type of experiment: in vivo. Conditions: murine IFNβ/PLP139-151 fusion protein; 2 nanomoles s.c. days 12, 14, 16. The method, then:
FIG. 8. […] Shown are the time-courses of EAE (A) and the percent maximal weight (B) from example 4.
On day 0, mice were passively challenged with activated, encephalitogenic T cells specific for the PLP139-151 epitope. […] On day 12, three groups of mice were matched for clinical severity. On days 12, 14, and 16, mice were treated with the IFNβ-NAg fusion protein (2 nanomoles), a synthetic PLP139-151 peptide (2 nanomoles), or saline. Treatments were given by subcutaneous injections of proteins or peptides in saline. On day 24, mice were actively challenged to induce a second bout of EAE by challenge with 200 micrograms of PLP139-151 in Complete Freund's Adjuvant. […] Furthermore, the fusion protein promoted a tolerogenic effect that ameliorated the subsequent bout of EAE (FIG. 8A). These observations support the concept that the IFNβ-NAg fusion protein may have clinical activities conducive for the treatment of autoimmune demyelinating disease of the central nervous system.

The subject of a further experiment is thymocytes. In words: Induction of class I MHC expression on thymocytes (flow cytometry). The note with it: 2 days of culture. The class given is cell-based. On the procedure: (§1) FIG. 1. The IFNβ-NAg his-tagged fusion protein was biologically active and was purified on nickel resins. (A) To assess whether IFNβ-NAg induced class I MHC expression, thymocytes (5×10^6/ml in complete RPMI) were cultured with or without IFNβ-NAg for 2 days and then were stained with B5 (anti-MHC-I), OX18 (anti-MHC-I), R73 (anti-TCRβ), or OX81 (anti-IL4; isotype control) and were analyzed by flow cytometry. (B) To assess IFNβ-mediated anti-proliferative activity, supernatants from two independently derived IFNβ-NAg expression systems as well as supernatants from several control expression systems were added at designated titrations (x-axis) to IL-2 stimulated cultures of BN-GP T cells. (C) To assess the specificity of anti-proliferative activity, baculovirus supernatants containing IFNβ-NAg were added at designated titrations to cultures of rat (R1T, BN-GP, RsL.11T, RsL.11, or Conal.8D9) or mouse (CTLL) T cells. Proliferative assays (B & C) were pulsed with [^3H]thymidine on the second day of a 3-day culture. (D) Shown is a representative SDS-PAGE analysis of purified IFNβ-NAg.
T cells were incubated with a 1/20 titration of a concentrated supernatant containing the designated mAb for 45 minutes at 4° C. […] Data were acquired with a Becton Dickinson FACScan flow cytometer and were analyzed with the CELLQuest software program. […]

The next experiment concerns CTLL T cells. The experiment in a line: Anti-proliferative/killing activity on CTLL T cells. The class given is cell-based, mouse. Conditions: murine CTLL T cells; baculovirus supernatants. The method, then: as §1, with “IFNβ-NAg. […]” for “IFNβ-NAg.”
(§2) Cultures were pulsed with 1 uCi of [^3H]thymidine (6.7 Ci/mmol, New England Nuclear) during the last day of a 3 or 4 day culture. […] [^3H]thymidine incorporation into DNA was measured by use of a Wallac 1450 Microbeta Plus liquid scintillation counter. […]

In another experiment the test system is RsL.11T. In words: Anti-proliferative/killing activity on RsL.11T T cells. The class given is cell-based, rat. Conditions: baculovirus supernatants. The method, then:
as §1, with “IFNβ-NAg. […]” for “IFNβ-NAg.”
as §2

A further experiment has as its system Conal.8D9. In words: Anti-proliferative/killing activity on Conal.8D9 T cells. The class given is cell-based, rat. Conditions: baculovirus supernatants. The method, then:
as §1, with “IFNβ-NAg. […]” for “IFNβ-NAg.”
as §2

For another experiment, the system named is RsL.11 clone. The experiment in a line: Anti-proliferative/killing activity on RsL.11 T cells. The class given is cell-based, rat. Conditions: baculovirus supernatants. The method, then:
as §1, with “IFNβ-NAg. […]” for “IFNβ-NAg.”
as §2

Another experiment has as its system R1T. The experiment in a line: Anti-proliferative/killing activity on R1T T cells. The note with it: baculovirus supernatants. Type of experiment: cell-based, rat. The method, then:
as §1, with “IFNβ-NAg. […]” for “IFNβ-NAg.”
as §2

B1: IFNβ-NAg: Fusion protein: rat IFNβ, enterokinase linker (GDDDDKG), encephalitogenic 73-87 peptide of guinea pig MBP, C-terminal 6-histidine tag (protein)
chain: IDYKQLQFRQSTSIRTCQKLLRQLNGRLNLSYRTDFKIPMEVMHPSQMEKSYTAFAIQVMLQNVFLVFRSNFSSTGWNETIVESLLDELHQQTELLEIILKEKQEERLTWVTSTTTLGLKSYYWRVQRYLKDKKYNSYAWMVVRAEVFRNFSIILRLNRNFQNGDDDDKGPQKSQRSQDENPVVHHHHHH
With B1, the “EAE-associated cachexia (percent maximal weight)” value in the experiment with EAE in SJL mice is given as “acutely reversed EAE-associated cachexia”. Further, the “expression of MHC-I on immature thymocytes” value with thymocytes (1% titration of baculovirus expression supernatant) is listed as “induced the expression of MHC-I”. Also, in the experiment with thymocytes (baculovirus expression supernatant), the TCRβ expression result is reported as “did not affect TCRβ expression”. The “cell death of T cell line” value in the experiment with CTLL T cells is “did not kill”; in the experiment with RsL.11T, “directly caused the death”; in the experiment with Conal.8D9, “directly caused the death”; with RsL.11 clone, “directly caused the death”; in the experiment with R1T, “did not kill”.
